The values below come from patent US20120058906A1 (published 2012).

Substitutions are numbered along the chain they refer to.

Test [1] addresses T1, Recombinant Human DLL4 (R&D Systems Cat#1506-D4/CF) (human, UniProt Q9NR61 27-524).
T1 construct: Bought recombinant protein; also called rHuman DLL4; delta-like protein 4
The test can be described thus: MSD ECL titration, Fab 2383 nM, blank 344.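 Also: blank spot per well as comparator with Hit at signal to blank ratio of 4 or more.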

Test [2] deals with T2, rHuman Notch-1/Fc Chimera, CF (R&D Systems Cat#3647-TK) (human, UniProt P46531 19-526).
T2 construct: Bought Fc chimera; Fc part of the bought chimera not given
The test can be described thus: MSD ECL titration, Fab 595.8 nM, blank 285.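 Also: blank spot per well as comparator with Hit at signal to blank ratio of 4 or more.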

Test [3] concerns the target T3, rHuman CD44/Fc Chimera, CF (R&D Systems Cat#3660-CD) (human, UniProt P16070 21-220).
T3 construct: Bought Fc chimera; Fc part of the bought chimera not given
In words: MSD ECL titration, Fab 595.8 nM, blank 285.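 Also: blank spot per well as comparator with Hit at signal to blank ratio of 4 or more.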

Test [4] concerns the target T4, rHuman IGF-1 sR (insulin-like growth factor-1 soluble receptor), CF (R&D Systems Cat#391-GR) (human, UniProt P08069 31-932).
T4 construct: Bought soluble receptor; also called IGF-R1
In words: MSD ECL titration, Fab 595.8 nM, blank 285.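 Also: blank spot per well as comparator with Hit at signal to blank ratio of 4 or more.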

Test [5] deals with T5, rHuman P-Cadherin/Fc Chimera, CF (R&D Systems Cat#861-PC) (human, UniProt P22223 108-654).
T5 construct: Bought Fc chimera; Fc part of the bought chimera not given
In words: MSD ECL titration, Fab 595.8 nM, blank 285.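 Also: blank spot per well as comparator with Hit at signal to blank ratio of 4 or more.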

In test [6] the target is T6, rHuman Erythropoietin R/Fc Chimera, CF (R&D Systems Cat#963-ER) (human, UniProt P19235 25-250).
T6 construct: Bought Fc chimera; also called EPO R/Fc; EPOR; Fc part of the bought chimera not given
T6 sequence: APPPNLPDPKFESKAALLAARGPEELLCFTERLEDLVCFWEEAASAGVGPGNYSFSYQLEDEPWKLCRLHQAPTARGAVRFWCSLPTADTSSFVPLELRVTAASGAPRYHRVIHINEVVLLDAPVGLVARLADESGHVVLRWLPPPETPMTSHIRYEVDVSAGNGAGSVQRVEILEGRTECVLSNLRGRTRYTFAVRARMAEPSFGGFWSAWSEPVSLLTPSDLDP
The test can be described thus: MSD ECL titration, Fab 595.8 nM, blank 285.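 Also: blank spot per well as comparator with Hit at signal to blank ratio of 4 or more.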

The target in test [7] is T1, Recombinant Human DLL4 (R&D Systems …). The test can be described thus: MSD ECL titration, Fab 595.8 nM, blank 285.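 Also: blank spot per well as comparator with Hit at signal to blank ratio of 4 or more.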
Test [8] addresses T7, rHuman ErbB2/Fc Chimera, CF (R&D Systems Cat#1129-ER) (human, UniProt P04626 23-652).
T7 construct: Bought Fc chimera; also called HER2/neu; Fc part of the bought chimera not given
The test can be described thus: MSD ECL titration, Fab 595.8 nM, blank 285.

The target of test [9] is T8, rHuman EGF R/Fc Chimera, CF (R&D Systems Cat#344-ER) (human, UniProt P00533 25-645).
T8 construct: Bought Fc chimera; Fc part of the bought chimera not given
In words: MSD ECL titration, Fab 595.8 nM, blank 285.

Test [10] addresses T9, rHuman HGF R/c-MET/Fc Chimera, CF (R&D Systems Cat#358-MT/CF) (human, UniProt P08581 25-932).
T9 construct: Bought Fc chimera; also called HGF R/Fc; Fc part of the bought chimera not given
The test can be described thus: MSD ECL titration, Fab 595.8 nM, blank 285.

Test [11] deals with T10, rHuman P-Cadherin/Fc Chimera, CF (R&D Systems Cat#861-PC) (human, UniProt P22223 108-654).
T10 construct: Purchased Fc chimera; not shown: Fc portion of the purchased chimera
In words: MSD ECL multi-spot plate, antigen immobilized; Fab 200 nM; blank spot 588.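 Also: blank spot per well as comparator with Hit at signal to blank ratio of 4 or more.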

Test [12] concerns the target T11, rHuman IGF-1 sR (IGF-1 sR), CF (R&D Systems Cat#391-GR) (human, UniProt P08069 31-932).
T11 construct: Purchased soluble receptor; also called insulin-like growth factor-1 soluble receptor; IGF-R1
The test can be described thus: MSD ECL multi-spot plate, antigen immobilized; Fab 200 nM; blank spot 529.

Test [13] addresses T10, rHuman P-Cadherin/Fc Chimera, CF (R&D …). The test is described as above.
For test [14], the target named is T12, rHuman Erythropoietin R/Fc Chimera, CF (R&D Systems Cat#963-ER) (human, UniProt P19235 25-250).
T12 construct: Purchased Fc chimera; also called EPO R/Fc; Epo R; not shown: Fc portion of the purchased chimera
T12 sequence: T6 sequence
The test is described as above.

For test [15], the target named is T13, Recombinant Human DLL4 (R&D Systems Cat#1506-D4/CF) (human, UniProt Q9NR61 27-524).
T13 construct: Purchased recombinant protein; also called delta-like protein 4
The test is described as above.

In test [16] the target is T14, rHuman ErbB2/Fc Chimera, CF (R&D Systems Cat#1129-ER) (human, UniProt P04626 23-652).
T14 construct: Purchased Fc chimera; also called HER2/neu; not shown: Fc portion of the purchased chimera
The description is as above.

Test [17] has as its target T15, rHuman EGF R/Fc Chimera, CF (R&D Systems Cat#344-ER) (human, UniProt P00533 25-645).
T15 construct: Purchased Fc chimera; not shown: Fc portion of the purchased chimera
The test is described as above.

The target in test [18] is T16, rHuman HGF R/c-MET/Fc Chimera, CF (R&D Systems Cat#358-MT/CF) (human, UniProt P08581 25-932).
T16 construct: Purchased Fc chimera; also called HGF R/Fc; not shown: Fc portion of the purchased chimera
The test is described as above.

Test [19] concerns the target T17, rHuman Notch-1/Fc Chimera, CF (R&D Systems Cat#3647-TK) (human, UniProt P46531 19-526).
T17 construct: Purchased Fc chimera; not shown: Fc portion of the purchased chimera
The test is described as above.

Test [20] deals with T18, rHuman CD44/Fc Chimera, CF (R&D Systems Cat#3660-CD) (human, UniProt P16070 21-220).
T18 construct: Purchased Fc chimera; not shown: Fc portion of the purchased chimera
The description is as above.

B1: Fab VH1-46_IGHD6-6*01_IGHJ1*01 & L6_IGKJ1*01 (Fab, V domains shown)
VH: QVQLVQSGAEVKKPGASVKVSCKASGYTFTSYYMHWVRQAPGQGLEWMGIINPSGGSTSYAQKFQGRVTMTRDTSTSTVYMELSSLRSEDTAVYYCAREEYSSSSAEYFQHWGQGTLVTVSS
VL: not shown
notes: Expressed in E. coli as Fab: heavy chain with CH1 plus Flag and His tags from Plasmid A, kappa light chain constant region from Plasmid C; also called Fab No. 1
B1: the ECL signal in test [1] is 11800; in test [2], 306; in test [3], 372; in [4], 335; in test [5], 617; in test [6], 378. The ECL signal in test [7] was found to be 17200; in test [8], 321; in test [9], 403; in test [10], 353.

B2: Fab VH5-51_IGHD5-18*01>3_IGHJ4*01_G100K & V3-4_IGLJ1*01 (Fab, V domains shown)
VH: EVQLVQSGAEVKKPGESLKISCKGSGYSFTSYWIGWVRQMPGKGLEWMGIIYPGDSDTRYSPSFQGQVTISADKSISTAYLQWSSLKASDTAMYYCARRKYSYGYDYFDYWGQGTLVTVSS
VL: QTVVTQEPSFSVSPGGTVTLTCGLSSGSVSTSYYPSWYQQTPGQAPRTLIYSTNTRSSGVPDRFSGSILGNKAALTITGAQADDESDYYCVLYMGSGISYVFGTGTKVTVL
notes: It was expressed as a Fab: CH1 with tags from Plasmid A and lambda CL from Plasmid E; also called Fab No. 22
As for B2, the ECL signal in test [11] was 1130 ECL signal.

B3: Fab VH5-51_IGHD5-18*01>3_IGHJ4*01_G100R & V3-4_IGLJ1*01 (Fab, V domains shown)
VH: B2 VH with K100R
VL: B2 VL
notes: It was expressed as a Fab: CH1 with tags from Plasmid A and lambda CL from Plasmid E; also called Fab No. 23
With B3, the ECL signal in [12] was 1110 ECL signal; in [13], 815 ECL signal; in [14], 1180 ECL signal; in test [15], 29800 ECL signal; in test [16], 1450 ECL signal; in [17], 1020 ECL signal. The ECL signal in test [18] came to 1160 ECL signal; in [19] it was 1330 ECL signal; in test [20], 895 ECL signal.
